Consider five molecules from publication PMC6954437 (Nucleic Acids Research, 2019).

Substitutions are numbered along the chain they refer to. In names and notes the source's numbering stands.

For data set [1], the target named is G5-TPR (Gemin5 TPR-like dimerization domain) (Homo sapiens, UniProt Q8TEQ6 807-1097). The data set can be described thus: EMSA.
The data set “SEC-MALS” deals with the molecule itself. Briefly: SEC-MALS.
The data set “[…]” deals with the molecule itself. The data set can be described thus: […].
Data set [2] concerns the target T1, Gemin5 cleavage fragment p85, wild type, with C-terminal TAP tag (human, UniProt Q8TEQ6 845-1508).
T1 sequence: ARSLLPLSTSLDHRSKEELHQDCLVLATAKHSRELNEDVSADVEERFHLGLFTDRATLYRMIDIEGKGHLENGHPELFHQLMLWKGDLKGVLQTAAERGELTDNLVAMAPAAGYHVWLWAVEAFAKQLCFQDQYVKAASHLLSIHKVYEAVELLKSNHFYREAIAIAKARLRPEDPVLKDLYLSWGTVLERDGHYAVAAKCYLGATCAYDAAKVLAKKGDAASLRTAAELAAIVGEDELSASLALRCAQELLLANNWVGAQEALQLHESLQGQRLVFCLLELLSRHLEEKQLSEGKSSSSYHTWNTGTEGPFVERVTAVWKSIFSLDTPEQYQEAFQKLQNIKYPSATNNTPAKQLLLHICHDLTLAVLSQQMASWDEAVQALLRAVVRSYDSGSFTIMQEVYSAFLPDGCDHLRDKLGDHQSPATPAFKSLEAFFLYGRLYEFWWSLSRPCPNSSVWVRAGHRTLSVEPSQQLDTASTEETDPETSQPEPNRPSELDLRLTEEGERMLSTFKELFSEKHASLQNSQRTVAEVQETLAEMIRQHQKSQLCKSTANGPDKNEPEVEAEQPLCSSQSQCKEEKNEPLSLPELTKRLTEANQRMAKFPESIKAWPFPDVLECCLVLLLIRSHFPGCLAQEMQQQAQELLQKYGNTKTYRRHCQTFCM
Briefly: co-IP.

On to AATTCCCCAAATTCCAGTGTCTGGGTAAG (ssDNA) [ssDNA H1-24-s (29 nt)], for which the binding result in data set [1] is reported as “no binding”.

B1: dsDNA H1-24-s/H1-24-as (dsDNA)
DNA 1: AATTCCCCAAATTCCAGTGTCTGGGTAAG
DNA 2: TCGACTTACCCAGACACTGGAATTTGGGG
For B1, the binding result in data set [1] is listed as “no binding”.

B2: Gemin5 TPR-like domain (residues 807-1097), wild type (domain or fragment)
chain: TPVSSGFEKSKVTINNKVILLKKEPPKEKPETLIKKRKARSLLPLSTSLDHRSKEELHQDCLVLATAKHSRELNEDVSADVEERFHLGLFTDRATLYRMIDIEGKGHLENGHPELFHQLMLWKGDLKGVLQTAAERGELTDNLVAMAPAAGYHVWLWAVEAFAKQLCFQDQYVKAASHLLSIHKVYEAVELLKSNHFYREAIAIAKARLRPEDPVLKDLYLSWGTVLERDGHYAVAAKCYLGATCAYDAAKVLAKKGDAASLRTAAELAAIVGEDELSASLALRCAQELLL
For the molecule B2, in the data set “SEC-MALS”, the “stoichiometry N” value came to 2.

B3: Gemin5 TPR-like domain (residues 807-1097) A951E (domain or fragment)
chain: B2 chain with A145E
As for B3, the “stoichiometry N” value in data set […] was determined as 2.

B4: Gemin5, full-length endogenous protein (natural protein)
chain: MGQEPRTLPPSPNWYCARCSDAVPGGLFGFAARTSVFLVRVGPGAGESPGTPPFRVIGELVGHTERVSGFTFSHHPGQYNLCATSSDDGTVKIWDVETKTVVTEHALHQHTISTLHWSPRVKDLIVSGDEKGVVFCYWFNRNDSQHLFIEPRTIFCLTCSPHHEDLVAIGYKDGIVVIIDISKKGEVIHRLRGHDDEIHSIAWCPLPGEDCLSINQEETSEEAEITNGNAVAQAPVTKGCYLATGSKDQTIRIWSCSRGRGVMILKLPFLKRRGGGIDPTVKERLWLTLHWPSNQPTQLVSSCFGGELLQWDLTQSWRRKYTLFSASSEGQNHSRIVFNLCPLQTEDDKQLLLSTSMDRDVKCWDIATLECSWTLPSLGGFAYSLAFSSVDIGSLAIGVGDGMIRVWNTLSIKNNYDVKNFWQGVKSKVTALCWHPTKEGCLAFGTDDGKVGLYDTYSNKPPQISSTYHKKTVYTLAWGPPVPPMSLGGEGDRPSLALYSCGGEGIVLQHNPWKLSGEAFDINKLIRDTNSIKYKLPVHTEISWKADGKIMALGNEDGSIEIFQIPNLKLICTIQQHHKLVNTISWHHEHGSQPELSYLMASGSNNAVIYVHNLKTVIESSPESPVTITEPYRTLSGHTAKITSVAWSPHHDGRLVSASYDGTAQVWDALREEPLCNFRGHRGRLLCVAWSPLDPDCIYSGADDFCVHKWLTSMQDHSRPPQGKKSIELEKKRLSQPKAKPKKKKKPTLRTPVKLESIDGNEEESMKENSGPVENGVSDQEGEEQAREPELPCGLAPAVSREPVICTPVSSGFEKSKVTINNKVILLKKEPPKEKPETLIKKRKARSLLPLSTSLDHRSKEELHQDCLVLATAKHSRELNEDVSADVEERFHLGLFTDRATLYRMIDIEGKGHLENGHPELFHQLMLWKGDLKGVLQTAAERGELTDNLVAMAPAAGYHVWLWAVEAFAKQLCFQDQYVKAASHLLSIHKVYEAVELLKSNHFYREAIAIAKARLRPEDPVLKDLYLSWGTVLERDGHYAVAAKCYLGATCAYDAAKVLAKKGDAASLRTAAELAAIVGEDELSASLALRCAQELLLANNWVGAQEALQLHESLQGQRLVFCLLELLSRHLEEKQLSEGKSSSSYHTWNTGTEGPFVERVTAVWKSIFSLDTPEQYQEAFQKLQNIKYPSATNNTPAKQLLLHICHDLTLAVLSQQMASWDEAVQALLRAVVRSYDSGSFTIMQEVYSAFLPDGCDHLRDKLGDHQSPATPAFKSLEAFFLYGRLYEFWWSLSRPCPNSSVWVRAGHRTLSVEPSQQLDTASTEETDPETSQPEPNRPSELDLRLTEEGERMLSTFKELFSEKHASLQNSQRTVAEVQETLAEMIRQHQKSQLCKSTANGPDKNEPEVEAEQPLCSSQSQCKEEKNEPLSLPELTKRLTEANQRMAKFPESIKAWPFPDVLECCLVLLLIRSHFPGCLAQEMQQQAQELLQKYGNTKTYRRHCQTFCM
Regarding B4, in data set [2], the “fold recruitment against p85-A951E” value came out at 10 fold.
